Like-named read-outs stand apart in the source and are kept apart here.
B1: Diacylglycerol Kinase (DgkA) from E. coli (enzyme, E. coli K12, UniProt P0ABN1 2-122, looked up)
chain: ANNTTGFTRIIKAAGYSWKGLRAAWINEAAFRQEGVAVLLAVVIACWLDVDAITRVLLISSVMLVMIVEILNSAIEAVVDRIGSEYHELSGRAKDMGSAAVLIAIIVAVITWCILLWSHFG

Legend:
Assay in all cases: native MS
[1] = target: sensory rhodopsin II (pSRII) from Natronomonas pharaonis, pSRII(1-241) (Natronomonas pharaonis) (UniProt P42196)
native MS [2] = target: the molecule itself
native MS [3] = target: the molecule itself; remark: listed apart in the source

Molecule	stoichiometry N [1]	stoichiometry N (native MS [2])	stoichiometry N (native MS [3])
sensory rhodopsin II (pSRII) from Natronomonas pharaonis, pSRII(1-241) (from UniProt P42196 1-239) (receptor)	2	–	–
B1	–	2	3

Reference: publication PMC3868940 (Nature methods, 2013)
